Measured values taken from patent US20230287454.

Key:
Assay in all cases: cell_activity
[1] = biological target: CD38 TALEN Left (synthetic construct) (UniProt Q56830); conditions: CD38-negative T cells, paired with CD38 right, simultaneous electroporation
[2] = biological target: CD38 TALEN Right (synthetic construct) (UniProt Q56830); conditions: CD38-negative T cells, paired with CD38 left, simultaneous electroporation
[3] = test system: CD52 TALEN Left (synthetic construct); conditions: CD52-negative T cells, paired with CD52 right, simultaneous electroporation
[4] = biological target: CD52 TALEN Right (synthetic construct) (UniProt Q56830); conditions: CD52-negative T cells, paired with CD52 left, simultaneous electroporation
[5] = biological target: TRAC TALEN Left (synthetic construct) (UniProt Q56830); conditions: TCR-negative T cells, paired with TRAC right, simultaneous electroporation with CD38 and CD52 TALEN
[6] = biological target: TRAC TALEN Right (synthetic construct) (UniProt Q56830); conditions: TCR-negative T cells, paired with TRAC left, simultaneous electroporation

CD38 left half-site was tested, and the activity [1] was 66.1%.
With CD38 right half-site the activity [2] was 66.1%.
In the case of CD52 left half-site, the activity [3] is reported as 57%.
CD52 right half-site showed an activity [4] of 57%.
For TRAC left half-site, the activity [5] was 67.8%.
In the case of TRAC right half-site, the activity [6] is reported as 67.8%.
